Target: AMPA glutamate receptor subunit GluA1 (mouse (endogenous in primary hippocampal neurons)) (UniProt P23818)
Experiment: co-IP; endogenous proteins in lysates of hippocampal neurons treated with vehicle (CTR) or IPA (insulin 20 nM + palmitic acid 0.2 mM); IP buffer KCl 50 mM, Tris-HCl 50 mM pH 8, EDTA 10 mM, 1% Nonidet P-40; specific antibody or IgG (negative control) with protein G-sepharose 4B, 6 h at 4 °C; six washes; immunoblot

UniProt P23818, sequence (P23818 19-907): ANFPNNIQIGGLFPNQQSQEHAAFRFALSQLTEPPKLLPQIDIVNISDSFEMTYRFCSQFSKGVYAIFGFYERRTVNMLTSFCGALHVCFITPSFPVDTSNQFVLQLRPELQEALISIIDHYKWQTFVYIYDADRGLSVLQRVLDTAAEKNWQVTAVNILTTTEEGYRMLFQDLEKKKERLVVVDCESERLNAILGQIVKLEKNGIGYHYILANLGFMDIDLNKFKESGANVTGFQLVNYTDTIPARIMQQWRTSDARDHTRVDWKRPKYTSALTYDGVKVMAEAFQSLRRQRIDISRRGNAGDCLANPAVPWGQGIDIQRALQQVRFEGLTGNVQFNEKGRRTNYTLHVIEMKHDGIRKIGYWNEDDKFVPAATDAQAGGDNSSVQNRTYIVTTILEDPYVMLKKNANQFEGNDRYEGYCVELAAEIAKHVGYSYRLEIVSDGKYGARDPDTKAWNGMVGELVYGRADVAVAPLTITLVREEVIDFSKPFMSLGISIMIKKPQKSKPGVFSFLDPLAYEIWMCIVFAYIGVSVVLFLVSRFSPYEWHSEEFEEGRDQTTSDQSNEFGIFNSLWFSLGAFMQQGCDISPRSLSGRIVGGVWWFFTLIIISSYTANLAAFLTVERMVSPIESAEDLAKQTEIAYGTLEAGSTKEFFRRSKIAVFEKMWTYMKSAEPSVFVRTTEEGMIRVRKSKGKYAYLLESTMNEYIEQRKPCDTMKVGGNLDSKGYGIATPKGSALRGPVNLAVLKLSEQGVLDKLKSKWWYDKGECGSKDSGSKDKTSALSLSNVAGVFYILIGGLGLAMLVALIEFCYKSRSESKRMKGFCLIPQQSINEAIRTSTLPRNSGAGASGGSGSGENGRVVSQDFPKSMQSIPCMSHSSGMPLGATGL

actin (from UniProt P60710 1-375) (natural protein)
change of the co-precipitated amount after IPA against vehicle control: -74%

Source: PMC5722929
